Data as given in patent publication US20250262153A1.

Target: PD-1 protein on the surface of Jurkat PD-1 NFAT line cells (UniProt Q15116)
Test: cell-based or functional assay

Sequence of UniProt Q15116 (Q15116 25-288 limits assumed): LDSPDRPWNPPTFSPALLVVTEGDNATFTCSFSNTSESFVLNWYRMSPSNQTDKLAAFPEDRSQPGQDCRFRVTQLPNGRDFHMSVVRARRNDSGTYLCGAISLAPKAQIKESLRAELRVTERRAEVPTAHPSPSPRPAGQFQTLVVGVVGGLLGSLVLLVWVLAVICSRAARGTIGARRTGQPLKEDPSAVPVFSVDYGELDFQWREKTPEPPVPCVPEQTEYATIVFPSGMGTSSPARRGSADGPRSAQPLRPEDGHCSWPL

Relative specific activity, % (ED50 standard / ED50 test, Jurkat PD-1 NFAT luminescence); 20 mg/ml, histidine, trehalose 100 mg/ml, 37 C, initial control: 105%
Relative specific activity, %; 20 mg/ml, acetate pH 5.0, trehalose 80 mg/ml, 37 C, 2 weeks: 103%
Relative specific activity, %; 20 mg/ml, acetate pH 5.0, trehalose 80 mg/ml, 37 C, 4 weeks: 94%
Relative specific activity, %; 20 mg/ml, acetate pH 5.0, trehalose 80 mg/ml, 37 C, initial control: 100%
Relative specific activity, %; 20 mg/ml, acetate pH 5.0, trehalose 100 mg/ml, 37 C, 2 weeks: 93%
Relative specific activity, %; 20 mg/ml, acetate pH 5.0, trehalose 100 mg/ml, 37 C, 4 weeks: 99%
Relative specific activity, %; 20 mg/ml, acetate pH 5.0, trehalose 100 mg/ml, 37 C, initial control: 89%
Relative specific activity, %; 20 mg/ml, histidine, trehalose 80 mg/ml, 37 C, 2 weeks: 103%
Relative specific activity, %; 20 mg/ml, histidine, trehalose 80 mg/ml, 37 C, 4 weeks: 94%
Relative specific activity, %; 20 mg/ml, histidine, trehalose 80 mg/ml, 37 C, initial control: 100%
Relative specific activity, %; 20 mg/ml, histidine, trehalose 100 mg/ml, 37 C, 2 weeks: 97%
Relative specific activity, %; 20 mg/ml, histidine, trehalose 100 mg/ml, 37 C, 4 weeks: 110%
Relative specific activity, %; 100 mg/ml, acetate pH 5.0, trehalose 80 mg/ml, 37 C, 2 weeks: 94%
Relative specific activity, %; 100 mg/ml, acetate pH 5.0, trehalose 80 mg/ml, 37 C, 4 weeks: 105%
Relative specific activity, %; 100 mg/ml, acetate pH 5.0, trehalose 80 mg/ml, 37 C, initial control: 89%
Relative specific activity, %; 100 mg/ml, acetate pH 5.0, trehalose 100 mg/ml, 37 C, 2 weeks: 112%
Relative specific activity, %; 100 mg/ml, acetate pH 5.0, trehalose 100 mg/ml, 37 C, 4 weeks: 97%
Relative specific activity, %; 100 mg/ml, acetate pH 5.0, trehalose 100 mg/ml, 37 C, initial control: 107%
Relative specific activity, %; 100 mg/ml, histidine, trehalose 80 mg/ml, 37 C, 2 weeks: 94%
Relative specific activity, %; 100 mg/ml, histidine, trehalose 80 mg/ml, 37 C, 4 weeks: 105%
Relative specific activity, %; 100 mg/ml, histidine, trehalose 80 mg/ml, 37 C, initial control: 89%
Relative specific activity, %; 100 mg/ml, histidine, trehalose 100 mg/ml, 37 C, 2 weeks: 104%
Relative specific activity, %; 100 mg/ml, histidine, trehalose 100 mg/ml, 37 C, 4 weeks: 97%
Relative specific activity, %; 100 mg/ml, histidine, trehalose 100 mg/ml, 37 C, initial control: 101%
Relative specific activity, %; 150 mg/ml, acetate pH 5.0, trehalose 80 mg/ml, 37 C, 2 weeks: 99%
Relative specific activity, %; 150 mg/ml, acetate pH 5.0, trehalose 80 mg/ml, 37 C, 4 weeks: 108%
Relative specific activity, %; 150 mg/ml, acetate pH 5.0, trehalose 80 mg/ml, 37 C, initial control: 91%
Relative specific activity, %; 150 mg/ml, acetate pH 5.0, trehalose 100 mg/ml, 37 C, 2 weeks: 106%
Relative specific activity, %; 150 mg/ml, acetate pH 5.0, trehalose 100 mg/ml, 37 C, 4 weeks: 103%
Relative specific activity, %; 150 mg/ml, acetate pH 5.0, trehalose 100 mg/ml, 37 C, initial control: 92%
Relative specific activity, %; 150 mg/ml, histidine, trehalose 80 mg/ml, 37 C, 2 weeks: 99%
Relative specific activity, %; 150 mg/ml, histidine, trehalose 80 mg/ml, 37 C, 4 weeks: 108%
Relative specific activity, %; 150 mg/ml, histidine, trehalose 80 mg/ml, 37 C, initial control: 91%
Relative specific activity, %; 150 mg/ml, histidine, trehalose 100 mg/ml, 37 C, 2 weeks: 100%
Relative specific activity, %; 150 mg/ml, histidine, trehalose 100 mg/ml, 37 C, 4 weeks: 105%
Relative specific activity, %; 150 mg/ml, histidine, trehalose 100 mg/ml, 37 C, initial control: 97%
B1: prolgolimab (antibody, from a related filing, V domains shown)
VH: QVQLVQSGGGLVQPGGSLRLSCAASGFTFSSYWMYWVRQVPGKGLEWVSAIDTGGGRTYYADSVKGRFAISRVNAKNTMYLQMNSLRAEDTAVYYCARDEGGGTGWGVLKDWPYGLDAWGQGTLVTVSS
VL: QPVLTQPLSVSVALGQTARITCGGNNIGSKNVHWYQQKPGQAPVLVIYRDSNRPSGIPERFSGSNSGNTATLTISRAQAGDEADYYCQVWDSSTAVFGTGTKLTVLQ
